The values that follow come from FireProtDB (doi:10.1073/pnas.0804396105).

“And” between values parts separate entries of the source, which are not always exact repeats. Identical values can stand only once.

First the molecules themselves.
B1: Adenosine receptor A2a, P29274 (parent)
chain: MPIMGSSVYITVELAIAVLAILGNVLVCWAVWLNSNLQNVTNYFVVSLAAADIAVGVLAIPFAITISTGFCAACHGCLFIACFVLVLTQSSIFSLLAIAIDRYIAIRIPLRYNGLVTGTRAKGIIAICWVLSFAIGLTPMLGWNNCGQPKEGKNHSQGCGEGQVACLFEDVVPMNYMVYFNFFACVLVPLLLMLGVYLRIFLAARRQLKQMESQPLPGERARSTLQKEVHAAKSLAIIVGLFALCWLPLHIINCFTFFCPDCSHAPLWLMYLAIVLSHTNSVVNPFIYAYRIREFRQTFRKIIRSHVLRQQEPFKAAGTSARVLAAHGSDGEQVSLRLNGHPPGVWANGSAPHPERRPNGYALGLVSGGSAQESQGNTGLPDVELLSHELKGVCPEPPGLDDPLAQDGAGVS

In this data set the parent is B1. As to conditions: Homo sapiens; pH 7.4; Thermal; Activity; Tris 50 mM; NaCl 0.4 M; structure 4UHR; whole UniProt chain shown.

A word on the Tm: it is the temperature at the midpoint of the melting transition.

Turning to MPIMGSSVYITVELAIAVLAILGNVLVCWAVWLNSNLQNVTNYFVVSLAAADIAVGVLAIPFAITISTGFCAACHGCLFIACFVLVLTQSSIFSLLAIAIDRYIAIRIPLRYNGLVTGTRAKGIIAICWVLSFAIGLTPMLGWNNCGQPKEGKNHSQGCGEGQVACLFEDVVPMNYMVYFNFFACVLVPLLLMLGVYLRIFLAARRQLKAMESQPLPGARARSTLQKEVHAAKSLAIIVGLFALCWLPLHIINCFTFFCPDCSHAPLWLMYLAIVLSHTNSVVNPFIYAYRIREFRQTFRKIIRSHVLRQQEPFKAAGTSARVLAAHGSDGEQVSLRLNGHPPGVWANGSAPHPERRPNGYALGLVSGGSAQESQGNTGLPDVELLSHELKGVCPEPPGLDDPLAQDGAGVS [Q210A E219A], the Tm turned out to be 31 °C and the “change of melting temperature, mutant - wild type (higher = more stable)” value (shortened to “change of melting temperature, mutant”) was 11 °C.
Taken in the same sequence, the figures for MPIMGSSVYITVELAIAVLAILGNVLVCWAVWLNSNLQNVTNYFVVSLAAADIAVGVLAIPFAITISTGFCAACHGCLFIACFVLVLTQSSIFSLLAIAIDRYIAIRIPLRYNGLVTGTRAKGIIAICWVLSFAIGLTPMLGWNNCGQPKEGKNHSQGCGEGQVACAFEDVVPMNYMVYFNFFLCVLVPLLLMLGVYLAIFLAARRQLKQMESQPLPGERARSTLQKEVAAAKSLAIIVGLFALCWLPLHIINCFTFFCPDCSHAPLWLMYLAIVLSHTNSVVNPFIYAYRIREFRQTFRKIIRSHVLRQQEPFKAAGTSARVLAAHGSDGEQVSLRLNGHPPGVWANGSAPHPERRPNGYALGLVSGGSAQESQGNTGLPDVELLSHELKGVCPEPPGLDDPLAQDGAGVS [L167A A184L R199A H230A] were 31 °C and 11 °C.
With MPIMGSSVYITVELAIAVLAILGNVLVCWAVWLNSNLQNVTNYFVVSLAAADILVGVLAIPFAITISTGFCAACHGCLFIACFVLVLTQSSIFSLLAIAIDRYIAIRIPLRYNGLVTGTRAKGIIAICWVLSFAIGLTPMLGWNNCGQPKEGKNHSQGCGEGQVACLFEDVVPMNYMVYFNFFACVLVPLLLMLGVYLRIFLALRRQLKQMESQPLPGERARSTLQKEVHAAKSLAIIVGLFALCWLPLHIINCFTFFCPDCSHAPLWLMYLAIVLSHTNSVVNPFIYAYRIREFRQTFRKIIRSHVLRQQEPFKAAGTSARVLAAHGSDGEQVSLRLNGHPPGVWANGSAPHPERRPNGYALGLVSGGSAQESQGNTGLPDVELLSHELKGVCPEPPGLDDPLAQDGAGVS [A54L A204L], the midpoint of thermal melting (Tm) is 33 °C and the “change of melting temperature, mutant” value was determined as 2 °C.
For MPIMGSSVYITVELAIAVLAILGNVLVCWAVWLNSNLQNVTNYFVVSLAAADIAVGVLAIPFAITISTGFCAACHGCLFIACFVLVLTQSSIFSLLAIAIDRYIAIRIPLRYNGLVTGTRAKGIIAICWVLSFAIGLTPMLGWNNCGQPKEGKNHSQGCGEGQVACLFEDVVPMNYMVYFNFFACVLVPLLLMLGVYLRIFLAARRQLKQMESQPLPGERARSTLQKEVHLAKSAAIIAGLFALCWLPLHIINCFTFFCPDCSHAPLWLMYLAIVLSHTNSVVNPFIYAYRIREFRQTFRKIIRSHVLRQQEPFKAAGTSARVLAAHGSDGEQVSLRLNGHPPGVWANGSAPHPERRPNGYALGLVSGGSAQESQGNTGLPDVELLSHELKGVCPEPPGLDDPLAQDGAGVS [A231L L235A V239A], in that order: 38 °C and 7 °C.
For MPIMGSSVYITVELAIAVLAILGNVLVCWAVWLNSNLQNVTNYFVVSLAAADILVGVLAIPFAITISTGFCAACAGCLFIACFVLVLTQSSIFSLLAIAIDRYIAIRIPLRYNGLVTGTRAKGIIAICWVLSFAIGLTPMLGWNNCGQPKEGKNHSQGCGEGQVACLFEDVVPMNYMVYFNFFACVLVPLLLMLGVYLRIFLAARRQLKQMESQPLPGERARSTLQKEVHAAKSLAIIAGLFALCWLPLHIINCFTFFCPDCSHAPLWLMYLAIVLSHTNSVVNPFIYAYRIREFRQTFRKIIRSHVLRQQEPFKAAGTSARVLAAHGSDGEQVSLRLNGHPPGVWANGSAPHPERRPNGYALGLVSGGSAQESQGNTGLPDVELLSHELKGVCPEPPGLDDPLAQDGAGVS [A54L H75A V239A], in that order: 37 °C and 6 °C.
On to MPIMGSSVYITVELAIAVLAILGNVLVCWAVWLNSNLQNVTNYFVVSLAAADILVGVLAIPFAITISTGFCAACHGCLFIACFVLVLTQSSIFSLLAIAIDRYIAIRIPLRYNGLVTGTRAAGIIAICWVLSFAIGLTPMLGWNNCGQPKEGKNHSQGCGEGQVACLFEDVVPMNYMVYFNFFACVLVPLLLMLGVYLRIFLAARRQLKQMESQPLPGERARSTLQKEVHAAKSLAIIVGLFALCWLPLHIINCFTFFCPDCSHAPLWLMYLAIVLSHTNSVVNPFIYAYRIREFRQTFRKIIRSHVLRQQEPFKAAGTSARVLAAHGSDGEQVSLRLNGHPPGVWANGSAPHPERRPNGYALGLVSGGSAQESQGNTGLPDVELLSHELKGVCPEPPGLDDPLAQDGAGVS [A54L K122A], for which the Tm was 35 °C and 40 °C; the “change of melting temperature, mutant” value was 4 °C and 8 °C.
Take MPIMGSSVYITVELAIAVLAILGNVLVCWAVWLNSNLQNVTNYFVVSLAAADIAVGVLAIPFAITISTGFCAACHGCLFIACFVLVLTQSSIFSLLAIAIDRYIAIRIPLRYNGLVTGTRAKGIIAICWVLSFAIGLTPMLGWNNCGQPKEGKNHSQGCGEGQVACLFEDVVPMNYMVYFNFFACVLVPLLLMLGVYLRIFLAARRQLKQMESQPLPGERARAALAAEVHAAKSLAIIVGLFALCWLPLHIINCFTFFCPDCSHAPLWLMYLAIVLSHTNSVVNPFIYAYRIREFRQTFRKIIRSHVLRQQEPFKAAGTSARVLAAHGSDGEQVSLRLNGHPPGVWANGSAPHPERRPNGYALGLVSGGSAQESQGNTGLPDVELLSHELKGVCPEPPGLDDPLAQDGAGVS [S223A T224A Q226A K227A]: the Tm stood at 24 °C and the “change of melting temperature, mutant” value was 4 °C.
